Laboratory results reported in the supplement of paper PMC10567573.

B1: TRIM55 (parent)
chain: YKSFSKEQQTMDNLEKQLICPICL
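Note: lentivirally expressed fusions sorted by FACS into six bins by GFP to DsRed ratio, PSI derived from sequencing read proportions per bin multiplied by bin number.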

Variants of: B1
Assay: protein stability index of a GFP-peptide fusion (GPS, HEK-293T) (PSI 1-6); higher = more stable
Settings: c terminus: a fixed tail appended
For YKSISKEQQTMDNLEKQLICPICL [F4I], the protein stability index was 2.23.
Variant YKSVSKEQQTMDNLEKQLICPICL [F4V] has a protein stability index of 2.24.
Variant YKSQSKEQQTMDNLEKQLICPICL [F4Q] has a protein stability index of 2.37.
For YKSDSKEQQTMDNLEKQLICPICL [F4D], the protein stability index was 2.43.
YKSRSKEQQTMDNLEKQLICPICL [F4R] gave a protein stability index of 2.66.
Work on YKSNSKEQQTMDNLEKQLICPICL [F4N] yielded a protein stability index of 2.45.
Variant YKSGSKEQQTMDNLEKQLICPICL [F4G] has a protein stability index of 2.49.
With YKSESKEQQTMDNLEKQLICPICL [F4E] the protein stability index was 2.49.
Work on YKSSSKEQQTMDNLEKQLICPICL [F4S] yielded a protein stability index of 2.64.
YKSASKEQQTMDNLEKQLICPICL [F4A] gave a protein stability index of 2.74.
Variant YKSWSKEQQTMDNLEKQLICPICL [F4W] has a protein stability index of 1.74.
With YKSYSKEQQTMDNLEKQLICPICL [F4Y] the protein stability index was 2.34.
For YKSCSKEQQTMDNLEKQLICPICL [F4C], the protein stability index was 2.59.
With YKSHSKEQQTMDNLEKQLICPICL [F4H] the protein stability index was 2.8.
With YKSPSKEQQTMDNLEKQLICPICL [F4P] the protein stability index was 2.9.
In the case of YKSKSKEQQTMDNLEKQLICPICL [F4K], the protein stability index is reported as 2.63.
For YKSTSKEQQTMDNLEKQLICPICL [F4T], the protein stability index was 2.44.
For YKSFSKEAQTMDNLEKQLICPICL [Q8A], the protein stability index was 2.65.
FKSFSKEQQTMDNLEKQLICPICL [Y1F] gave a protein stability index of 2.02.
WKSFSKEQQTMDNLEKQLICPICL [Y1W] showed a protein stability index of 2.17.
RKSFSKEQQTMDNLEKQLICPICL [Y1R] gave a protein stability index of 2.83.
In the case of DKSFSKEQQTMDNLEKQLICPICL [Y1D], the protein stability index is reported as 3.46.
VKSFSKEQQTMDNLEKQLICPICL [Y1V] showed a protein stability index of 1.97.
PKSFSKEQQTMDNLEKQLICPICL [Y1P] gave a protein stability index of 2.7.
In the case of KKSFSKEQQTMDNLEKQLICPICL [Y1K], the protein stability index is reported as 2.68.
In the case of SKSFSKEQQTMDNLEKQLICPICL [Y1S], the protein stability index is reported as 3.02.
For LKSFSKEQQTMDNLEKQLICPICL [Y1L], the protein stability index was 2.94.
For MKSFSKEQQTMDNLEKQLICPICL [Y1M], the protein stability index was 2.5.
In the case of QKSFSKEQQTMDNLEKQLICPICL [Y1Q], the protein stability index is reported as 2.15.
With CKSFSKEQQTMDNLEKQLICPICL [Y1C] the protein stability index was 2.7.
Variant TKSFSKEQQTMDNLEKQLICPICL [Y1T] has a protein stability index of 2.62.
Variant HKSFSKEQQTMDNLEKQLICPICL [Y1H] has a protein stability index of 3.12.
In the case of IKSFSKEQQTMDNLEKQLICPICL [Y1I], the protein stability index is reported as 1.99.
For AKSFSKEQQTMDNLEKQLICPICL [Y1A], the protein stability index was 2.5.
With GKSFSKEQQTMDNLEKQLICPICL [Y1G] the protein stability index was 2.35.
With EKSFSKEQQTMDNLEKQLICPICL [Y1E] the protein stability index was 2.48.
With NKSFSKEQQTMDNLEKQLICPICL [Y1N] the protein stability index was 2.48.
Work on YKSFSKWQQTMDNLEKQLICPICL [E7W] yielded a protein stability index of 1.83.
With YKSFSKDQQTMDNLEKQLICPICL [E7D] the protein stability index was 2.29.
Variant YKSFSKTQQTMDNLEKQLICPICL [E7T] has a protein stability index of 1.96.
With YKSFSKNQQTMDNLEKQLICPICL [E7N] the protein stability index was 2.18.
Work on YKSFSKKQQTMDNLEKQLICPICL [E7K] yielded a protein stability index of 2.25.
YKSFSKHQQTMDNLEKQLICPICL [E7H] showed a protein stability index of 2.36.
YKSFSKLQQTMDNLEKQLICPICL [E7L] showed a protein stability index of 1.35.
With YKSFSKGQQTMDNLEKQLICPICL [E7G] the protein stability index was 1.53.
YKSFSKRQQTMDNLEKQLICPICL [E7R] gave a protein stability index of 1.87.
For YKSFSKVQQTMDNLEKQLICPICL [E7V], the protein stability index was 1.6.
YKSFSKMQQTMDNLEKQLICPICL [E7M] gave a protein stability index of 2.37.
With YKSFSKCQQTMDNLEKQLICPICL [E7C] the protein stability index was 1.98.
With YKSFSKFQQTMDNLEKQLICPICL [E7F] the protein stability index was 1.87.
In the case of YKSFSKSQQTMDNLEKQLICPICL [E7S], the protein stability index is reported as 1.67.
Work on YKSFSKIQQTMDNLEKQLICPICL [E7I] yielded a protein stability index of 2.4.
With YKSFSKPQQTMDNLEKQLICPICL [E7P] the protein stability index was 2.27.
For YKSFSKYQQTMDNLEKQLICPICL [E7Y], the protein stability index was 1.72.
With YKSFSKAQQTMDNLEKQLICPICL [E7A] the protein stability index was 2.08.
With YKSFSKQQQTMDNLEKQLICPICL [E7Q] the protein stability index was 1.67.
YASFSKEQQTMDNLEKQLICPICL [K2A] showed a protein stability index of 2.02.
YMSFSKEQQTMDNLEKQLICPICL [K2M] showed a protein stability index of 2.1.
YQSFSKEQQTMDNLEKQLICPICL [K2Q] showed a protein stability index of 1.59.
For YHSFSKEQQTMDNLEKQLICPICL [K2H], the protein stability index was 1.29.
Variant YDSFSKEQQTMDNLEKQLICPICL [K2D] has a protein stability index of 2.36.
Work on YESFSKEQQTMDNLEKQLICPICL [K2E] yielded a protein stability index of 1.73.
Work on YVSFSKEQQTMDNLEKQLICPICL [K2V] yielded a protein stability index of 2.05.
Work on YCSFSKEQQTMDNLEKQLICPICL [K2C] yielded a protein stability index of 1.93.
In the case of YRSFSKEQQTMDNLEKQLICPICL [K2R], the protein stability index is reported as 1.73.
YLSFSKEQQTMDNLEKQLICPICL [K2L] gave a protein stability index of 2.52.
In the case of YYSFSKEQQTMDNLEKQLICPICL [K2Y], the protein stability index is reported as 1.95.
In the case of YISFSKEQQTMDNLEKQLICPICL [K2I], the protein stability index is reported as 1.56.
For YGSFSKEQQTMDNLEKQLICPICL [K2G], the protein stability index was 2.92.
For YFSFSKEQQTMDNLEKQLICPICL [K2F], the protein stability index was 2.09.
For YPSFSKEQQTMDNLEKQLICPICL [K2P], the protein stability index was 2.5.
YTSFSKEQQTMDNLEKQLICPICL [K2T] gave a protein stability index of 1.83.
Work on YWSFSKEQQTMDNLEKQLICPICL [K2W] yielded a protein stability index of 1.96.
YNSFSKEQQTMDNLEKQLICPICL [K2N] gave a protein stability index of 2.12.
Variant YSSFSKEQQTMDNLEKQLICPICL [K2S] has a protein stability index of 2.38.
Work on YKSFKKEQQTMDNLEKQLICPICL [S5K] yielded a protein stability index of 2.48.
YKSFVKEQQTMDNLEKQLICPICL [S5V] gave a protein stability index of 1.99.
Work on YKSFYKEQQTMDNLEKQLICPICL [S5Y] yielded a protein stability index of 2.26.
YKSFHKEQQTMDNLEKQLICPICL [S5H] gave a protein stability index of 1.81.
YKSFQKEQQTMDNLEKQLICPICL [S5Q] showed a protein stability index of 2.19.
For YKSFFKEQQTMDNLEKQLICPICL [S5F], the protein stability index was 1.71.
Variant YKSFNKEQQTMDNLEKQLICPICL [S5N] has a protein stability index of 2.4.
For YKSFEKEQQTMDNLEKQLICPICL [S5E], the protein stability index was 2.26.
For YKSFPKEQQTMDNLEKQLICPICL [S5P], the protein stability index was 2.07.
For YKSFTKEQQTMDNLEKQLICPICL [S5T], the protein stability index was 1.92.
Work on YKSFWKEQQTMDNLEKQLICPICL [S5W] yielded a protein stability index of 1.37.
YKSFMKEQQTMDNLEKQLICPICL [S5M] gave a protein stability index of 2.11.
YKSFDKEQQTMDNLEKQLICPICL [S5D] showed a protein stability index of 2.18.
With YKSFGKEQQTMDNLEKQLICPICL [S5G] the protein stability index was 2.13.
Variant YKSFRKEQQTMDNLEKQLICPICL [S5R] has a protein stability index of 2.11.
YKSFCKEQQTMDNLEKQLICPICL [S5C] showed a protein stability index of 2.73.
YKSFLKEQQTMDNLEKQLICPICL [S5L] gave a protein stability index of 1.34.
With YKSFIKEQQTMDNLEKQLICPICL [S5I] the protein stability index was 1.96.
In the case of YKSFAKEQQTMDNLEKQLICPICL [S5A], the protein stability index is reported as 1.89.
